In patent publication US20120276102A1 (Pfizer, published 2012):

T1: human IL-2Rβ (human, UniProt P14784 27-239)
T1 sequence (looked up): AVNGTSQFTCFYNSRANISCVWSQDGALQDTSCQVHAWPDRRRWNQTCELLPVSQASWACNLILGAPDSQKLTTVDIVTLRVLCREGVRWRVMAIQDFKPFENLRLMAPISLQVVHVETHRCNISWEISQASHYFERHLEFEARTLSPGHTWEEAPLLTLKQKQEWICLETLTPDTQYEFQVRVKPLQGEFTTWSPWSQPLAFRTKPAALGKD

T2: human gamma (γ) common chain expressed on CHO cells (human, UniProt P31785 23-369)
T2 construct: whole, on cells; Control protein; also called human IL-2R-γ common subunit; human γ-common
T2 sequence (looked up): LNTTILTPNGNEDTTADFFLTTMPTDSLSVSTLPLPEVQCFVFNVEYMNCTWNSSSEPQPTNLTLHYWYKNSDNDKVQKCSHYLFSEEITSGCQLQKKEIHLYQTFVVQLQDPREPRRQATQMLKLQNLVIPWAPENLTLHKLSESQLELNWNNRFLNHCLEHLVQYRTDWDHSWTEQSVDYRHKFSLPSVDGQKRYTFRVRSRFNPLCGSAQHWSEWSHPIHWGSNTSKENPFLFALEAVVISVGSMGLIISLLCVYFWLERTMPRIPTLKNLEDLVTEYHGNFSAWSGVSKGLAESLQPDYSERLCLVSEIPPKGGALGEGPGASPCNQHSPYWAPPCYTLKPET

B1: AbA (antibody, V domains shown)
VH: QVQLQESGPGLVKPSETLSLTCAVSGYSISSGYYWGWIRQPPGKGLEWIGSISHTGNTYYNPPLKSRVTISVDTSKNQFSLKLSSVTAADTAVYYCARGGGISRPEYWGQGTLVTVSS
VL: SSELTQDPAVSVALGQTVRITCQGDSLRTYYASWYQQKPGQAPVLVIYGKHKRPSGIPDRFSGSSSGNTASLTITGAQAEDEADYYCVARSVVGNPHVLFGGGTQLTVL
notes: Human IgG1/lambda, transiently expressed; also called VHP/VL2
B2: AbV (antibody, human IgG1, V domains shown)
VH: QVQLQESGPGLVKPSETLSLTCAVSGYSISSGYYWGWIRQPPGKGLEWIGSISHTGNTYYNPPLKSRVTISVDTSKNQFSLKLSSVTAADTAVYYCARFMGFGRPEYWGQGTLVTVSS
VL: SSELTQDPAVSVALGQTVRITCQGDSLRTYYASWYQQKPGQAPVLVIYGKHKRPSGIPDRFSGSSSGNTASLTITGAQAEDEADYYCVARSVVGNPHVLFGGGTQLTVL
B3: AbB (antibody, IgG1, V domains shown)
VH: QVQLQESGPGLVKPSETLSLTCAVSGYSISSGYYWGWIRQPPGKGLEWIGSISHTGNTYYNPPLKSRVTISVDTSKNQFSLKLSSVTAADTAVYYCARGGGISRPEYWGQGTLVTVSS
VL: SSELTQDPAVSVALGQTVRITCQGDSLRTYYASWYQQKPGQAPVLVIYGKHKRPSGIPDRFSGSSSGNTASLTITGAQAEDEADYYCVSRAVVGNPHVLFGGGTQLTVL
notes: As for AbA: IgG1/lambda, CDR3 graft, residue limits derived; also called VHP/VL3
B4: AbJ (antibody, IgG1, V domains shown)
VH: QVQLQESGPGLVKPSETLSLTCAVSGYSISSGYYWGWIRQPPGKGLEWIGSISHTGNTYYNPPLKSRVTISVDTSKNQFSLKLSSVTAADTAVYYCARFMGFGRPEYWGQGTLVTVSS
VL: SSELTQDPAVSVALGQTVRITCQGDSLRTYYASWYQQKPGQAPVLVIYGKHKRPSGIPDRFSGSSSGNTASLTITGAQAEDEADYYCNSRDSSGNPHVLFGGGTQLTVL
notes: As for AbA: IgG1/lambda, CDR3 graft, residue limits derived; also called VH3/VLP
B5: AbC (antibody, IgG1, V domains shown)
VH: QVQLQESGPGLVKPSETLSLTCAVSGYSISSGYYWGWIRQPPGKGLEWIGSISHTGNTYYNPPLKSRVTISVDTSKNQFSLKLSSVTAADTAVYYCARGGGISRPEYWGQGTLVTVSS
VL: SSELTQDPAVSVALGQTVRITCQGDSLRTYYASWYQQKPGQAPVLVIYGKHKRPSGIPDRFSGSSSGNTASLTITGAQAEDEADYYCSSRSRHGNPHVLFGGGTQLTVL
notes: As for AbA: IgG1/lambda, CDR3 graft, residue limits derived; also called VHP/VL11

Columns and labels:
[1] = molecular target: T3, human IL-21R expressed on cells (human, UniProt Q9HBE5 20-538); assay: cell-based or functional assay
[2] = molecular target: murine IL-21R expressed on cells (murine, UniProt Q9JHX3 20-529); assay: cell-based or functional assay
[3] = molecular target: T4, cynomolgus monkey IL-21R expressed on cells (cynomolgus monkey, UniProt G7Q0S8 41-559); assay: cell-based ELISA on CHO cells transiently expressing cynomolgus monkey IL-21R; HRP anti-human IgG, A450
T4 construct: whole, on cells
Experimental: (§1) FIG. 6(a-l) depicts the binding of 21 anti-IL-21R IgGs to CHO cells transiently expressing human IL-21R (FIGS. 6a-c), rat IL-21R (FIGS. 6d-f), cynomolgus monkey IL-21R (FIGS. 6g-i), and human gamma common chain (FIGS. 6j-1). CHO cells were transiently transfected with IL-21R or the control gamma common chain, and binding was detected with HRP-conjugated anti-human IgG in a cell-based ELISA.
(§2) A subset of binding proteins was tested for binding to rat, cynomolgus monkey, human IL-21R, or human IL-2R-γ common subunit expressed transiently on the surfaces of CHO-PA-Dukx cells. Cells were transfected 48 hr prior to the assay. On the day of the assay, cells were washed gently 5× in PBS containing 0.9 mM CaCl₂ and 0.45 mM MgCl₂ (PBS/CaMg) on an automated plate washer (Titertek, Huntsville, Ala.), and blocked for 1 hr at RT in PBS/CaMg/5% nonfat dry milk. Conditioned media from transiently expressed anti-IL-21R IgGs were serially diluted in blocking buffer and added to the cells in the blocked plates for 1 hr at RT. Cells were washed 5× with PBS/CaMg and then incubated with horseradish peroxidase-conjugated anti-human IgG for 1 hr at RT. Cells were then washed 10× in PBS/CaMg and all of the wash buffer was removed. Cells were incubated with 100 μl TMB until the color reaction reached saturation, stopped with 100 μl of 0.18 M H₂SO₄, and read at A450 on a Perkin Elmer ENVISION™ plate reader.

human IL-13-His/FLAG = molecular target: T5, human IL-13-His/FLAG (human, UniProt P35225 35-146, limits assumed); assay: SPR, Ab captured
T5 construct: Unrelated His/FLAG-tagged control; also called human IL-13-H/F
Experimental: (§3) The specificity of binding of a subset of transiently expressed anti-IL-21R binding proteins (here antibodies) was tested on a BIACORE™ 2000 surface plasmon resonance instrument. Anti-human-IgG, anti-murine immunoglobulin antibodies, and murine IL-21R-H/F were immobilized onto a research-grade carboxymethyl-dextran chip (CM5) using standard amine coupling. The sensor chip surface was activated with EDC/NHS for 7 min at a flow rate of 20 μl/min. The first flow cell was used as reference surface to correct for bulk refractive index, matrix effects, and nonspecific binding. […] Remaining activated groups were blocked with 1.0 M ethanolamine (pH 8.0). The molecular weights of the anti-human IgG and the anti-murine IgG were both 150 kD, and the molecular weight of the IL-21R monomer was 27 kD.
(§4) Conditioned media containing anti-IL-21R antibodies and antibody controls (murine anti-human IL-2Rβ and murine anti-human IL-4R(R&D Systems, Minneapolis, Minn.); human anti-human IL-13 (Wyeth, Cambridge, Mass.)) were diluted in HBS/EP buffer supplemented with 0.2% bovine serum and injected onto all four flow cells of the BIACORE™ chip, capturing 500-700 (RU) of antibody on the species-appropriate capture antibody. Following a 5 sec washing period, 50 nM solutions of a positive control protein (murine IL-21R-H/F), two human proteins related to IL-21R (human IL-2Rβ and human sIL-4R(R&D Systems)), or an unrelated His/FLAG-tagged protein (human IL-13-H/F) were injected over the captured antibodies on the chip. The association and dissociation phases were monitored for 120 and 180 sec, respectively, followed by two 5 μl injections of glycine (pH 1.5) to regenerate a fully active capturing surface. All binding experiments were done at 25° C. in HBS/EP buffer. Blank and buffer effects were subtracted for each sensorgram using double referencing.

human soluble IL-4R = molecular target: T6, human soluble IL-4R (human, UniProt P24394 26-232, limits assumed); assay: SPR, Ab captured
T6 construct: also called human sIL-4R
Experimental: as §3, §4

human IL-2Rβ = molecular target: T1, human IL-2Rβ; assay: SPR, Ab captured
Experimental: as §3, §4

[4] = molecular target: T7, rat IL-21R expressed on cells (rat); assay: cell-based ELISA on CHO cells transiently expressing rat IL-21R; HRP anti-human IgG, A450
T7 construct: whole, on cells
Experimental: as §1, §2

[5] = molecular target: T7, rat IL-21R expressed on cells; assay: cell ELISA, CHO cells
Experimental: as §2

[6] = molecular target: T2, human gamma (γ) common chain expressed …; assay: cell ELISA, CHO cells
Experimental: as §2

[7] = molecular target: T3, human IL-21R expressed on cells; assay: cell ELISA, CHO cells
Experimental: as §2

[8] = molecular target: T4, cynomolgus monkey IL-21R expressed on …; assay: cell ELISA, CHO cells
Experimental: as §2

[9] = molecular target: T2, human gamma (γ) common chain expressed …; assay: cell-based ELISA on CHO cells transiently expressing human gamma common chain; HRP anti-human IgG, A450
Experimental: as §1, §2

[10] = molecular target: T3, human IL-21R expressed on cells; assay: cell-based ELISA on CHO cells transiently expressing human IL-21R; HRP anti-human IgG, A450
Experimental: as §1, §2

[11] = molecular target: T7, rat IL-21R expressed on cells; assay: cell-based or functional assay

T5 sequence (P35225 35-146 limits assumed): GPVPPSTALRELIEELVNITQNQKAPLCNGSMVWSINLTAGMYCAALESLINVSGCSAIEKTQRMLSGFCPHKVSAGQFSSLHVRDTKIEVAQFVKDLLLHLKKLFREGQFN
T3 sequence (Q9HBE5 20-538 limits assumed): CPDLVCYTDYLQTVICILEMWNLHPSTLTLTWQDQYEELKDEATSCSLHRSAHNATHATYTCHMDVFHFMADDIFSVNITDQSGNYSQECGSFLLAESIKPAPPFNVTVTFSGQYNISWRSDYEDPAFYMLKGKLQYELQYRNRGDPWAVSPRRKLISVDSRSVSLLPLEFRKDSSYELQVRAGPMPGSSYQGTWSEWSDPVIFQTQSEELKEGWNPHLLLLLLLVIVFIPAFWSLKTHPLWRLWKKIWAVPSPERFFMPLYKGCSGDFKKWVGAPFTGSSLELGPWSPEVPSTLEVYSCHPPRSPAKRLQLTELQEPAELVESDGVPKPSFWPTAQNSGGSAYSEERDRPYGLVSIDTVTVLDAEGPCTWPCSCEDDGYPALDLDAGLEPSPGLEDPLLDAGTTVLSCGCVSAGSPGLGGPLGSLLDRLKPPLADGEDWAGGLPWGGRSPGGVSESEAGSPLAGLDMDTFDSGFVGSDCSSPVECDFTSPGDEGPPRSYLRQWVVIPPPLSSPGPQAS
Sequence of murine IL-21R expressed on cells (Q9JHX3 20-529 limits assumed): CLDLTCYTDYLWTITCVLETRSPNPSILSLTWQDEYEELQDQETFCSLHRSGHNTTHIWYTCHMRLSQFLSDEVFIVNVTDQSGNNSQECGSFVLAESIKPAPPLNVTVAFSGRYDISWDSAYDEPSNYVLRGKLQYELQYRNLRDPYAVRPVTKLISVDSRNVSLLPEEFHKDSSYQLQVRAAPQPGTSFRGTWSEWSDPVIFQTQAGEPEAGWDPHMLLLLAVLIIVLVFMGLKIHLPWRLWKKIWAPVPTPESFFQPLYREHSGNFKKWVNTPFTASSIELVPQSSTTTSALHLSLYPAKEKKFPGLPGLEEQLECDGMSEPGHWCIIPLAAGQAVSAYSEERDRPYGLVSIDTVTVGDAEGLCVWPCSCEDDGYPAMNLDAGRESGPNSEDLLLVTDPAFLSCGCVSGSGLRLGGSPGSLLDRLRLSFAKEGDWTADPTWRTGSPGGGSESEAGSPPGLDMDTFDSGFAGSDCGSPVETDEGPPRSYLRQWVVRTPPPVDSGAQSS

Binder	Human IL-21R-BaF3 Proliferation IC50 [1] [nM]	Human IL-21R-TF1 Proliferation IC50 [1] [nM]	Murine IL-21R-BaF3 Proliferation IC50 [2] [nM]	EC50 (read off the curve) [3] [nM]	binding result (human IL-13-His/FLAG)	binding result (human soluble IL-4R)	binding result (human IL-2Rβ)	EC50 (read off the curve) [4] [nM]	A450 (13 nM Ab) [5] [A450]	A450 (13 nM Ab) [6] [A450]	A450 (13 nM Ab) [7] [A450]	A450 (13 nM Ab) [8] [A450]	binding result [9]	EC50 (read off the curve) [10] [nM]	IC50, rat T cell proliferation, experiment 1 [11] [nM]	IC50, rat T cell proliferation, experiment 2 [11] [nM]
B1	0.97	3.8	0.08	~0.5	no binding (tested: 50 nM)	no binding (tested: 50 nM)	no binding (tested: 50 nM)	~0.8	1.12	0.111	1.2	1.35	no binding (tested: 40 nM)	~0.5		
B2															70.5	59.2
B3	1.14	3.34	0.421	~0.6	no binding (tested: 50 nM)	no binding (tested: 50 nM)	no binding (tested: 50 nM)	~2	1.09	0.107	1.15	1.33	no binding (tested: 40 nM)	~1		
B4	0.65	4.6	0.4	~0.3	no binding (tested: 50 nM)	no binding (tested: 50 nM)	no binding (tested: 50 nM)	~0.4	1.26	0.126	1.22	1.27	no binding (tested: 13 nM)	~0.3		
B5	0.82	3.36	0.03	~2	no binding (tested: 50 nM)	no binding (tested: 50 nM)	no binding (tested: 50 nM)	~1	0.999	0.137	1.22	1.28	no binding (tested: 40 nM)	~0.7		
